The numbers were not newly measured in article doi:10.1101/390104, which cites them from elsewhere.

Some targets named below: Asp51 (UniProt position 72, EDAVLDVQGIA); Glu46 (UniProt position 67, NKDKPEDAVLD); Asp47 (UniProt position 68, KDKPEDAVLDV).
Experiment in all cases: NMR
Holding throughout (conditions): folded inactive HdeA dimer, client-free (inferred from context); cited from earlier work

As to “Acid stress chaperone HdeA (wild type) (Escherichia coli)”, the results for the pKa with Asp51, with Glu46 and with Asp47 were 3.83, 4.07 and 4.14, respectively.
